US20200255528A1 (Five Prime, published 2020)
Residue numbers refer to the chain shown, from its start.

Tests used:
[1] = molecular target: T1, human B7-H4 on cells (human, UniProt Q7Z7D3 25-282); assay: flow cytometry titration on SK-BR-3 cells (endogenous human B7-H4), GEO MFI against antibody concentration
T1 construct: Full-length human B7-H4 on transfected HEK293T cells (also aAPCs) or endogenous on SK-BR-3 breast cancer cells; also called SK-BR-3 (endogenous human B7-H4)
T1 sequence: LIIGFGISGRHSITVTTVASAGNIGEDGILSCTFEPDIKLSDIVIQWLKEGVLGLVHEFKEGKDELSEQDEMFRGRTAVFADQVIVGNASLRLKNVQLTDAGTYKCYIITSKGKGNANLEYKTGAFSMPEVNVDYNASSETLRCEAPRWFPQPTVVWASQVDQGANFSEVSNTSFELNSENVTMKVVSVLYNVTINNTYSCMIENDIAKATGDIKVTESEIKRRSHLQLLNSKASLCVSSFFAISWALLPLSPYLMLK

[2] = molecular target: T2, cynomolgus monkey B7-H4 on cells (cynomolgus monkey, UniProt Q7Z7D3 25-282 (human entry)); assay: flow cytometry titration on HEK293T cells transfected with cynomolgus monkey B7-H4 (293-cynoB7-H4), GEO MFI against antibody concentration
T2 construct: Full-length, on transfected HEK293T cells
T2 chain: T1 sequence with L53I, F242L, S252A

[3] = molecular target: T3, rat B7-H4 on cells (rat, UniProt Q501W4 25-257); assay: flow cytometry titration on HEK293T cells transfected with rat B7-H4 (293-ratB7-H4), GEO MFI against antibody concentration
T3 construct: Full-length, on transfected HEK293T cells
T3 sequence: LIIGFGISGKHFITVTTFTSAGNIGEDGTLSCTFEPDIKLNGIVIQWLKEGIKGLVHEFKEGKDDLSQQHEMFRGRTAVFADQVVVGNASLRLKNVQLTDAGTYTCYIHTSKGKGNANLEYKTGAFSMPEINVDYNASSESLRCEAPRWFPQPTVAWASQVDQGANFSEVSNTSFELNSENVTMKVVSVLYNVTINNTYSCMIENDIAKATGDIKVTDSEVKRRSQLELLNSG

[4] = molecular target: T4, mouse B7-H4 on cells (mouse, UniProt Q7TSP5 25-257); assay: flow cytometry titration on HEK293T cells transfected with mouse B7-H4 (293-mouseB7-H4), GEO MFI against antibody concentration
T4 construct: Full-length, on transfected HEK293T cells
T4 sequence: T3 sequence with H109R, E228Q

[5] = molecular target: T5, recombinant human B7-H4-huIgG1 (human); assay: BLI and SPR
T5 construct: the entry begins with the N-terminal leader (MASLG...), no cleavage site is stated; also called B7-H4-hulgGl; B7-H4-extracellular domain (ECD)

B1: antibody 20506 (antibody, V domains shown)
VH: QLQLQESGPGLVKPSETLSLTCTASGGSISHGGYYWSWIRQHPGKGLEWIGNIYYSGSTYYNPSLKSRVTMSVDTSKNQFSLKLSSVTAADTAVYYCARESSTISADFDLWGRGTLVTVSS
VL: DIQMTQSPSSVSASVGDRVTITCRASQGISRWLAWYQQKPGKAPKLLIYAASSLQSGVPSRFSGSGSGTDFTLTISSLQPEDFATYYCQQAHTFPYTFGGGTKVEIKR
notes: human IgG1/kappa
Q: B1 was tested. Which “EC50 (read off the curve)” value [1] did it give?
A: ~2 nM

Q: What about the “EC50 (read off the curve)” value [2] of the same binder?
A: ~5 nM

Q: Does B1 bind [3]?
A: binds

Q: What about the “EC50 (read off the curve)” value [4] of the same binder?
A: ~8 nM

B2: antibody 15462 (antibody, human IgG1, kappa, V domains shown)
VH: QLQLQESGPGLVKPSETLSLTCTVSGGSISSSSYYWGWIRQPPGKGLEWIGNIYYSGSTYYNPSLKSRVTISVDTSKNQFSLKLSSVTAADTAVYYCAREGSYTTVLNVWGQGTMVTVSS
VL: EIVLTQSPGTLSLSPGERATLSCRASQSVSSSYLAWYQQKPGQAPRLLIYGASSRATGIPDRFSGSGSGTDFTLTISRLEPEDFAVYYCQQAASYPLTFGGGTKVEIKR
notes: human IgG1/kappa
Q: Does B2 bind [5]?
A: binds

B3: antibody 15483 (antibody, human IgG1, kappa, V domains shown)
VH: QVQLQESGPGLVKPSQTLSLTCTVSGGSISSGGYYWSWIRQHPGKGLEWIGNIYYSGSTYYNPSLKSRVTISVDTSKNQFSLKLSSVTAADTAVYYCARGLSTIDEAFDPWGQGTLVTVSS
VL: not shown
notes: human IgG1/kappa
Q: Does B3 bind [5]?
A: binds
